The values below come from PMC4382112.

Assay [1] deals with soluble murine EPCR with a C-terminal myc-His tag (murine) (UniProt Q64695). The experiment in a line: ELISA; plate binding assay: soluble murine EPCR (5 μg/ml) captured by immobilised anti-myc monoclonal antibody; murine protein C variants 0 to 1200 nM in TBS-1% BSA, 5mM CaCl2, 0.6mM MgCl2, 2 hours at 37°C with shaking; detected with sheep anti-murine protein C; one-site fit, apparent KD (KD(app)); n = 3. In general terms: An ELISA detects its analyte on a solid surface through an enzyme-linked reagent.

The target of assay [2] is human APC(5A) (human).

Chain of UniProt Q64695 (Q64695 18-214): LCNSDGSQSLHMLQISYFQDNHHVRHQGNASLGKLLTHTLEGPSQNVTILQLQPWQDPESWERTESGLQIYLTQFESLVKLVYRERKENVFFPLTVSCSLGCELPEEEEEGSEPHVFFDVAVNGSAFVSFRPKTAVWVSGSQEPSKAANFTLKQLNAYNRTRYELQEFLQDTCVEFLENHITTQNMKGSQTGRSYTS

Regarding “murine protein C(S360A) (natural protein)”, the Kd in assay [1] came out at 129 nM.
The same measure, in the same setting: the result for “plasma-derived murine protein C (natural protein)” reads 94.3 nM.
On the same count and under the same terms, the result for “recombinant murine wt protein C (natural protein)” reads 112 nM.

B1: human recombinant protein C inhibitor (PCI) (natural protein)
chain: EMKKRVEDLHVGATVAPSSRRDFTFDLYRALASAAPSQSIFFSPVSISMSLAMLSLGAGSSTKMQILEGLGLNLQKSSEKELHRGFQQLLQELNQPRDGFQLSLGNALFTDLVVDLQDTFVSAMKTLYLADTFPTNFRDSAGAMKQINDYVAKQTKGKIVDLLKNLDSNAVVIMVNYIFFKAKWETSFNHKGTQEQDFYVTSETVVRVPMMSREDQYHYLLDRNLSCRVVGVPYQGNATALFILPSEGKMQQVENGLSEKTLRKWLKMFKKRQLELYLPKFSIEGSYQLEKVLPSLGISNVFTSHADLSGISNHSNIQVSEMVHKAVVEVDESGTRAAAATGTIFTFRSARLNSQRLVFNRPFLMFIVDNNILFLGKVNRP
B1 showed an inactivation of 20nM human APC variant by 200nM PCI at 37°C, residual APC activity on S-2366 over 0–20 minutes; half-life in assay [2] of 4 min.
